As usually defined, the stoichiometry N is the number of molecules, sites or subunits per partner or assembly.

The target of series [1] is HA-tagged YadA-MA expressed in E. coli (Yersinia enterocolitica) (UniProt P0C2W0). Put plainly: SDS-PAGE of the SDS-stable oligomer with monomerization by boiling in urea.
Series [2] concerns the molecule itself. The description is as above.

For “HA-tagged YadA-MA expressed in E. coli (from UniProt P0C2W0 335-422) (domain or fragment)”, the stoichiometry N in series [1] was 3.

B1: HA-tagged YadA-MA-S417G, expressed in yeast (domain or fragment)
chain: FHQLDNRLDKLDTRVDKGLASSAALNSLFQPYGVGKVNFTAGVGGYRSSQALAIGSGYRVNESVALKAGVAYAGSSDVMYNAGFNIEW
As to B1, in series [2], the “stoichiometry N” value was 3.

(Values after article PMC3093317 (Molecular Biology of the Cell, 2011).)
